Molecular target: EtpA^1-606 (Enterotoxigenic Escherichia coli (ETEC))
Assay: dynamic light scattering; Zetasizer, 4°C, 1 mg/mL protein in 20 mM Tris pH 7.5, 150 mM NaCl

## EtpA^1-606 (domain or fragment)
  stoichiometry N: 2
